Among the data in patent US20220042018, “APTAMERS AND THE USE THEREOF IN THE TREATMENT OF CANCER” (FUNDACIÓn PARA LA INVESTIGACIÓn BIOMÉDICA …, published 2022) are binding result and Kd values, retold here.

In general, Kd refers to the concentration at which binding is half-saturated. Read a low Kd as tighter binding.

In data set [1] the target is T1, MNK1a (MKNK1 isoform a) (UniProt Q9BUB5-2 Q9BUB5-2:1-424). Briefly: recognised both isoforms in a similar manner; data not shown. The note with it: tags: GST fusion; label: biotin; G4 predicted.
T1 sequence (Q9BUB5 other isoform, or with tags, fused parts or gaps): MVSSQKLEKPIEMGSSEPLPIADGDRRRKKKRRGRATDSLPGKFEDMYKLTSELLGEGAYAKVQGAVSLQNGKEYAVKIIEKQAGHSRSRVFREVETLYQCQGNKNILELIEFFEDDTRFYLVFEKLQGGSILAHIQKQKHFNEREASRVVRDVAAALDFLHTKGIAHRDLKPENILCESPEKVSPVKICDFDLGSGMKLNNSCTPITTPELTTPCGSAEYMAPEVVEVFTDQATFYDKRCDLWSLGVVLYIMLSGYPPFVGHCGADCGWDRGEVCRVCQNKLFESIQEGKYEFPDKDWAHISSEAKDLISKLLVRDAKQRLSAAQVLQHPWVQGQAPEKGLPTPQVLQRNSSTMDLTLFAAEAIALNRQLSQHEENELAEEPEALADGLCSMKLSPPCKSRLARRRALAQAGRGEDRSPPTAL
In data set [2] the target is T2, MNK1b (MKNK1 isoform b) (UniProt Q9BUB5-3 Q9BUB5-3:1-347). The description is as above. The note with it: tags: GST fusion; label: biotin; G4 predicted.
T2 sequence (Q9BUB5 other isoform, or with tags, fused parts or gaps): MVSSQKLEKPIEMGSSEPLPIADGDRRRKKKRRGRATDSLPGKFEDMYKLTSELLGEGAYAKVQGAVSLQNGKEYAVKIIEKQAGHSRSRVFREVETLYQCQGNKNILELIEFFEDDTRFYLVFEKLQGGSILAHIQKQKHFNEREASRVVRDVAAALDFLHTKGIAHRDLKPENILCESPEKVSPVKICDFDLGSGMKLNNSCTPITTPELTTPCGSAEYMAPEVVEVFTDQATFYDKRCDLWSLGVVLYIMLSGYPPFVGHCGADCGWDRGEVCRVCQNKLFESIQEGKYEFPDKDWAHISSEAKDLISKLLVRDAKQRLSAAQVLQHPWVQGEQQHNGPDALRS
For data set [3], the target named is T1, MNK1a (MKNK1 isoform a). The data set can be described thus: ELONA; BSA-free aptamer buffer, 37 C; also detected in apta-western. The note with it: tags: GST fusion; label: biotin; G4 (parallel, five-tiered from 3- and 2-tier quadruplexes). Here is the method:
(§1) To determine the binding of the aptamers to MNK1a or MNK1b, 200 ng of protein/well diluted in a coating solution (KPL, USA) in a final volume of 100 μL/well were added to a Maxisorp Nunc 96-well ELISA plate (ThermoFisher Scientific, USA). The plate was incubated overnight at 4° C. under stirring. Aptamers were then added at the corresponding concentration according to the assay, in a final volume of 100 μL/well of BSA-free aptamer buffer for 1 hour at 37° C. under stirring. All the aptamers used were labeled with biotin and had been previously denatured at 90° C. for 10 minutes and then kept at 4° C. for 10 minutes in the BSA-free aptamer buffer. To detect the binding of the aptamer to the protein, 100 μL/well of streptavidin-peroxidase (GE Healthcare, United Kingdom) diluted 1/1000 in the aptamer buffer at 37° C. for 1 hour under stirring were added. To develop the plate, 100 μL/well of ABTS solution (Roche, Switzerland) were added, and it was incubated in darkness at room temperature, with measurements being taken every 10 minutes at a wavelength of 405 nm in an Infinite F200 spectrophotometer (TECAN, Switzerland).
(§2) To analyze the affinity of the new aptamer apMNKQ2, ELONA assays were carried out with the four MNK1 constructs.

Data set [4] addresses T2, MNK1b (MKNK1 isoform b). Briefly: ELONA; BSA-free aptamer buffer, 37 C; four-fold higher affinity than MNK1a; preferentially recognised in native apta-western. The note with it: tags: GST fusion; label: biotin; G4 (parallel, five-tiered from 3- and 2-tier quadruplexes). Here is the method: as §1, §2

For the molecule TTTTTGGGGTGGGCGGGCGGGGGTGGGGGTGGTATGGCGCGTTGGCCC (structured_DNA) [apMNK2FT], the binding result with MNK1a (MKNK1 isoform a) [1] and with MNK1b (MKNK1 isoform b) [2] was “binds” in each case.

With TGGGGTGGGCGGGCGGGGGTGGGGGTGGT (structured_DNA) [apMNKQ2], the figures for the Kd with MNK1a (MKNK1 isoform a) [3] and with MNK1b (MKNK1 isoform b) [4] were 66.1 nM and 15.5 nM, respectively.
